Assays:
[1] = immunofluorescence, nuclear FOXD1; details: glycan lost
Western blot of FOXD1 = details: glycan lost; control: vector control

B1: FOXD1: tunicamycin (protein)
parent chain: MTLSTEMSDASGLAEETDIDVVGEGEDEEDEEEEDDDEGGGGGPRLAVPAQRRRRRRSYAGEDELEDLEEEEDDDDILLAPPAGGSPAPPGPAPAAGAGAGGGGGGGGAGGGGSAGSGAKNPLVKPPYSYIALITMAILQSPKKRLTLSEICEFISGRFPYYREKFPAWQNSIRHNLSLNDCFVKIPREPGNPGKGNYWTLDPESADMFDNGSFLRRRKRFKRQPLLPPNAAAAESLLLRGAGAAGGAGDPAAAAALFPPAPPPPPHAYGYGPYGCGYGLQLPPYAPPSALFAAAAAAAAAAAFHPHSPPPPPPPHGAAAELARTAFGYRPHPLGAALPGPLPASAAKAGGPGASALARSPFSIESIIGGSLGPAAAAAAAAQAAAAAQASPSPSPVAAPPAPGSSGGGCAAQAAVGPAAALTRSLVAAAAAAASSVSSSAALGTLHQGTALSSVENFTARISNC
[1]; control: untreated
  localisation_or_trafficking: decreases

B2: FOXD1: GEM+TM (protein)
parent chain: B1 parent chain
[1]; control: GEM alone
  localisation_or_trafficking: decreases

B3: FOXD1: ALG3 knockdown (protein)
parent chain: B1 parent chain
[1]; control: vector control
  localisation_or_trafficking: decreases
Western blot of FOXD1
  expression_or_secretion: decreases

Reference: publication PMC11900802
